According to patent US20210340233A1 (CRESCENDO BIOLOGICS, published 2021):
Numbering of substitutions follows the chain as printed. Each block holds one binder with its values, some of them ahead of it.

Columns and labels:
[1] = molecular target: mouse serum albumin (MSA) (mouse, UniProt P07724 25-608); test: BLI (Octet RED384), albumin amine-coupled to AR2G biosensor
Procedure: (§1) Binding studies with human, cyno and mouse serum albumin were carried out using the FortéBio OCTET RED384 instrument. Serum albumin (HSA, CSA, MSA) were coupled to AR2G biosensors by amine coupling using the amine reagent coupling kit (2nd generation, FortéBio). Briefly AR2G biosensors were rehydrated in water and then activated using EDC/sNHS reagents over 10 minutes. The activated biosensors were dipped into wells containing diluted serum albumin (HSA, CSA, MSA) to 10 ug/ml in 10 mM sodium acetate pH 5.0 for 10 minutes before free active sites were quenched using 1M Ethanolamine pH 8.5 over 10 minutes. These were then dipped into 10 mM glycine pH 2.5 to stabilise the surface. […] Anomalous or poorly fitting curves were excluded from the analysis.

[2] = molecular target: T1, Human Serum Albumin (HSA) (human, UniProt P02768 25-609); test: BLI (Octet RED384), albumin amine-coupled to AR2G biosensor, 1:1 model
T1 construct: Recombinant HSA from Sigma A9731 is named only for immunisation
Procedure: as §1

[3] = molecular target: T2, Cyno Serum Albumin (CSA) (cynomolgus, UniProt A2V9Z4 25-608); test: as above
T2 construct: Bought protein; also called cynomolgus serum albumin
Procedure: as §1

[4] = molecular target: T1, Human Serum Albumin (HSA); test: BIAcore (Affinity), pH7; pH 7
[5] = molecular target: T2, Cyno Serum Albumin (CSA); test: BIAcore (Affinity), pH7; pH 7
[6] = molecular target: T1, Human Serum Albumin (HSA); test: BIAcore (Affinity), pH5; pH 5
[7] = molecular target: T2, Cyno Serum Albumin (CSA); test: BIAcore (Affinity), pH5; pH 5

mouse serum albumin (MSA), sequence (P07724 25-608 limits assumed): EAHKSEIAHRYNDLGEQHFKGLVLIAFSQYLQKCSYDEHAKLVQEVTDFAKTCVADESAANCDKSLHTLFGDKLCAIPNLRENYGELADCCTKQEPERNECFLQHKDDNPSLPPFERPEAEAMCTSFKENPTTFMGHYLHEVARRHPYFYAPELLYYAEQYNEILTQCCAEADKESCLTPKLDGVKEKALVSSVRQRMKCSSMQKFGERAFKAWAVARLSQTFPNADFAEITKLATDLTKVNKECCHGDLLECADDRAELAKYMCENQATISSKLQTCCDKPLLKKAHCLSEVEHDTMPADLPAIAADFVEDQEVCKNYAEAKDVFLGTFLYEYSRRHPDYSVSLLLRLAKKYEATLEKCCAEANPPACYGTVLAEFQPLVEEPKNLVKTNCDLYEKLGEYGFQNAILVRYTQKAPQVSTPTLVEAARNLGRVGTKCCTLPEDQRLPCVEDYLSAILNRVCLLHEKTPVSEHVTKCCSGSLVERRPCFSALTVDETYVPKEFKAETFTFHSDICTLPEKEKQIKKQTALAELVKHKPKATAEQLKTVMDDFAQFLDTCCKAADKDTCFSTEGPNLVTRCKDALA

Kd [2]: 4.83 nM
koff [2]: 0.00108 s⁻¹
kon [2]: 238000 M⁻¹ s⁻¹
Kd [3]: 102 nM
koff [3]: 0.0147 s⁻¹
kon [3]: 144000 M⁻¹ s⁻¹
B1: trispecific molecule (SEQ ID NO. 17) including Humabody ® 1 (bispecific antibody)
chain: EVQLVESGGGVVQPGRSLRLSCAASGFSFSGYGMHWVRQAPGKGLEWVAYISYDGSNKYYADSVKGRFTISRDNSKNTLYLQMNSLRAEDTAVYYCAKDPAWGLRLGESSSYDFDIWGQGTMVTVSSGGGGSGGGGSGGGGSGGGGSGGGGSGGGGSEVQLVESGGGLVQPGGSLRLSCAASGFTLSNYWMNWVRQAPGKGLEWVANINQDGSERYYVDSVKGRFTISRDNAKNSLYLQMNSLRAEDTAVYYCARGGEGYGVDHYGLDVSGQGTTVTVSSGGGGSGGGGSGGGGSGGGGSGGGGSGGGGSEVQLVESGGGLVQPGRSLRLSCAASGFTFHHYAMHWVRQAPGKGLEWVSGISWNGNKITYADSVKGRFTISRDNAKNSLYLQMNSLRAEDTALYYCVRDSSLFIVGAPTFEHWGRGTLVTVSSGGGGSGGGGSGGGGSGGGGS
notes: 1 at the C-terminal end; also called trivalent compound; trivalent construct
binding result [1]: no binding (tested: top concentration 1500 nM)

Kd [4]: 6 nM
koff [4]: 0.00162 s⁻¹
kon [4]: 255000 M⁻¹ s⁻¹
Kd [5]: 67 nM
koff [5]: 0.0168 s⁻¹
kon [5]: 250000 M⁻¹ s⁻¹
Kd [6]: 13 nM
koff [6]: 0.00319 s⁻¹
kon [6]: 242000 M⁻¹ s⁻¹
Kd [7]: 99 nM
koff [7]: 0.0241 s⁻¹
kon [7]: 244000 M⁻¹ s⁻¹
B2: Variant of SEQ ID NO. 1 with E111→D and R115→Q (VHH)
VHH: EVQLVESGGGLVQPGRSLRLSCAASGFTFHHYAMHWVRQAPGKGLEWVSGISWNGNKITYADSVKGRFTISRDNAKNSLYLQMNSLRAEDTALYYCVRDSSLFIVGAPTFDHWGQGTLVTVSS
notes: Human single VH domain

Kd [4]: 3 nM
Kd [5]: 33 nM
Kd [6]: 12 nM
Kd [7]: 96 nM
B3: Humabody ® 1 (SEQ ID NO. 1) (VHH)
VHH: B2 VHH with D111E, Q115R
notes: Human single VH domain antibody from transgenic mice, not camelid; also called Humabody ® 1 VH; Humabody ® 1-ctag
